# Reference: patent US20250043016A1 (SANYOU BIOPHARMACEUTICALS, published 2025)
# T1: recombinant human TNFR2 (SinoBiological, 10417-H03H) (human, UniProt P20333 23-257)
# T1 construct: Bought protein; also called human recombinant TNFR2
# T1 sequence (looked up): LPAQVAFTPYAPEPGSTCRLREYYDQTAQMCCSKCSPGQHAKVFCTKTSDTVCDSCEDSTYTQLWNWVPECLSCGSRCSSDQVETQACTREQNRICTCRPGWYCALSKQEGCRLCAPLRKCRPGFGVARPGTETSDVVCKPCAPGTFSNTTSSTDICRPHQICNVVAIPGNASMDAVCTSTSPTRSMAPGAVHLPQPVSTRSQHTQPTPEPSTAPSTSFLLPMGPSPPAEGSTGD
# Target: T1, recombinant human TNFR2 …
# Assay: ELISA on plate-coated recombinant human TNFR2, detection with anti-camelid-VHH-HRP; the axis is the lysate concentration
# Protocol: The prepared positive clone lysate was subjected to ELISA affinity detection. The specific method was as follows: a 96-well ELISA plate was coated with 2 μg/mL recombinant human TNFR2 and incubated overnight at 4° C.; the next day, the well plate was washed 3 times with PBST, 5% skim milk was added, and blocking was performed for 2 h; subsequently, the well plate was washed 3 times with PBST, gradiently diluted positive clone lysates were added, and incubation was performed for 1 h; subsequently, the well plate was washed 3 times with PBST, Rabbit Anti-Camelid-VHH-HRP (Genescript, A01861-200) diluted at 1:8000 was added, and incubation was performed for 1 h; subsequently, the well plate was washed 6 times with PBST, TMB (SurModics, TMBS-1000-01) was added for color development in the dark for 5-10 min, and 2 M HCl was added to stop the reaction according to the color development results; the values at OD450 were read by a microplate reader (Molecular Devices, SpecterMax 190) and fitted by four parameters.
binder,measurement,value
"NB92-161 VHH (positive clone lysate from E. coli) (VHH, Tested as crude bacterial lysate from the phage display vector) VHH: EVQLVESGGGLVQPGGSLRLSCAASGSIFSINDMGWYRQAPGKQRELVAAIGRGGGSTNYADSVKGRFTISRDNAKNTVYLQMNSLKPEDTAVYYCHAEISQLTWAFRDYWGQGTQVTVSS",EC50 (read off the curve),~0.2 µg/mL
